Data as given in patent US20260103526A1 (OSE IMMUNOTHERAPEUTICS, published 2026).

T1: Fc-CLEC-1A (recombinant human Fc-CLEC-1 protein, OSE IMMUNOTHERAPEUTICS) (human, Alexa Fluor 488 label in the flow cytometry competition assays)
T1 construct: also called hFc-CLEC; Fc-CLEC1-A488
T1 chain: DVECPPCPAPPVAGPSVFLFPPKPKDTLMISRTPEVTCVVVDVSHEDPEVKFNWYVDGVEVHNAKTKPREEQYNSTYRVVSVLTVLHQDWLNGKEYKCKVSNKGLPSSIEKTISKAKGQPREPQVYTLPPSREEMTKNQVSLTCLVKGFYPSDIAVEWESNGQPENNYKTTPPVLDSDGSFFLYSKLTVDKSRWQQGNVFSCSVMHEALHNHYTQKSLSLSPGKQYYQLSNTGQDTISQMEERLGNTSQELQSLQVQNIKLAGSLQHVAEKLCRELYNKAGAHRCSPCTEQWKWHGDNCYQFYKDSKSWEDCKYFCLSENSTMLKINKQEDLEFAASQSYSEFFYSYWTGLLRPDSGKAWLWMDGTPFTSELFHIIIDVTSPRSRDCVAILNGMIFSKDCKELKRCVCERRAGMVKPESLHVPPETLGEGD

T2: mice CLEC-1A protein (mouse, UniProt Q8BWY2 73-269, limits assumed)
T2 construct: also called mice orthologue of CLEC-1A
T2 sequence (looked up): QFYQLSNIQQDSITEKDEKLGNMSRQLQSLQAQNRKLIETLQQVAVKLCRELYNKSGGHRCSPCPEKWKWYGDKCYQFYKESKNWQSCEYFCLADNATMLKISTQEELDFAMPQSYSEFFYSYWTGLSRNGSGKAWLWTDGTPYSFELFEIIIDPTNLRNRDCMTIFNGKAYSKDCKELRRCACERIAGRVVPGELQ

T3: recombinant hCLEC1-His (R&D SYSTEMS reference 1704-CL) (human, UniProt Q8NC01 74-280, limits assumed)
T3 construct: Bought protein; also called CLEC-His; Clec-His; not shown: His tag
T3 sequence: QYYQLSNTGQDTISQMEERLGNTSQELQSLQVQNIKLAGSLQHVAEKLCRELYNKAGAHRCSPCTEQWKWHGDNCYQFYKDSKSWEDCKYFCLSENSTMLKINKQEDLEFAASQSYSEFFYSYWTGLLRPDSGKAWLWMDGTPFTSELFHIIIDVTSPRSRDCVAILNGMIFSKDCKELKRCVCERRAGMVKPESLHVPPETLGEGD


Key:
[1] = target: T1, Fc-CLEC-1A (recombinant human Fc-CLEC-1 …); experiment: flow cytometry competition: antibody pre-incubated with A488-labelled Fc-CLEC1 (100 nM), then binding to permeabilised NALM6 cells (CLEC-1 ligand m15); % stained cells
Procedure: Revelation was performed on CYTOFLEX cytometer, values corresponding to percentage of stained cells (%).
To measure competition on NALM6 cells.

mice CLEC-1A protein = target: T2, mice CLEC-1A protein; experiment: in vitro; assay not given
[2] = target: T1, Fc-CLEC-1A (recombinant human Fc-CLEC-1 …); experiment: flow cytometry competition; inhibition of Fc-CLEC-1-A488 binding to Hepa 1.6 or MC38 cells; reference chimeric 6C5
Source text: (§1) Murine hepatoma Hepa 1.6 or colorectal carcinoma MC38 cell lines were also used in an antagonist assay. […] Finally, cells were fixed with 1% PFA solution and read on a cytometer.

[3] = target: T1, Fc-CLEC-1A (recombinant human Fc-CLEC-1 …); experiment: flow cytometry competition: antibody pre-incubated with A488-labelled human Fc-CLEC-1 (10 µg/mL), then binding to live Hepa1.6 cells (ligand m16); % hFc-CLEC-1+ cells normalised on hIgG4
Source text: as §1

[4] = target: T3, recombinant hCLEC1-His (R&D SYSTEMS …); experiment: BLITZ: CLEC-His immobilised on a NINTA biosensor (10 µg/ml), antibody at 20 µg/ml, 120 s association and 120 s dissociation
[5] = target: T1, Fc-CLEC-1A (recombinant human Fc-CLEC-1 …); experiment: flow cytometry competition: antibody pre-incubated with A488-labelled human Fc-CLEC-1 (10 µg/mL), then binding to live MC38 cells (ligand m16); % hFc-CLEC-1+ cells normalised on hIgG4
Source text: as §1

[6] = target: T1, Fc-CLEC-1A (recombinant human Fc-CLEC-1 …); experiment: flow cytometry competition; inhibition of Fc-CLEC-1-A488 binding to Hepa 1.6 or MC38 cells; reference chimeric 11H11
Source text: as §1

[7] = target: T1, Fc-CLEC-1A (recombinant human Fc-CLEC-1 …); experiment: flow cytometry competition; inhibition of Fc-CLEC-1-A488 binding to Hepa 1.6 cells; reference chimeric 14H9
Source text: as §1

[8] = target: T1, Fc-CLEC-1A (recombinant human Fc-CLEC-1 …); experiment: flow cytometry competition: antibody pre-incubated with A488-labelled Fc-CLEC1 (10 nM), then binding to permeabilised Raji cells (CLEC-1 ligand m15); % stained cells

Row | IC50 (read off the curve) [1] | binding result (mice CLEC-1A protein) | EC50 ratio, humanized against chimeric counterpart [2] | EC50 [3] | Kd [4] | koff [4] | kon [4] | EC50 [5] | EC50 ratio, humanized against chimeric counterpart [6] | EC50 ratio, humanized against chimeric counterpart [7] | IC50 (read off the curve) [8] | Binder
1 | ~3 µg/mL | no binding | ≤ 0.5 fold (EC50 humanized / EC50 chimeric) | 1.06 µg/mL | 5.69 nM | 0.000275 s⁻¹ | 48300 M⁻¹ s⁻¹ | 0.522 µg/mL | – | – | – | humanized 6C5 (antibody, V domains shown, Only variable domains are tied to the antibody) VH: QVQLVQSGAEVKKPGSSVKMSCKASGYTFTDYVISWVRQAPGQGLEWMGEIYPGSGNTYYNQKFQGRVTLTADKSTSTAYMELSSLRSEDTAVYYCAGGGSSHFDYWGQGTTVTVSS VL: EIVLTQSPATLSLSPGERATLSCRASQSVDNHGFSFMNWFQQKPGQAPRLLIYAASNRGTGIPARFSGSGSGTDFTLTISSMEPEDFAVYYCQQSKEVPWTFGGGTKVEIK
2 | ~3 µg/mL | no binding | – | 0.542 µg/mL | 0.301 nM | 7.19e-05 s⁻¹ | 239000 M⁻¹ s⁻¹ | 1.33 µg/mL | ≤ 0.5 fold (EC50 humanized / EC50 chimeric) | – | – | humanized 11H11 (antibody, human IgG4, V domains shown, Only variable domains are tied to the antibody; also called hum 11H11) VH: QIQLVQSGSELKKPGASVKVSCKASGYTFTNFGMNWVRQAPGQGLEWMGWINTNTGEPTYADDFKGRFVFSLDTSVSTAYLQISSLKAEDTATYFCARGAPAWFTYWGQGTTVTVSS VL: DIQMTQSPSSLSASVGDRVTITCRASESIYSYLAWYQQKPGKAPKFLIYNAKTLASGVPSRFSGSGSGTDFTLTISSLQPEDFATYYCQHHFGTPLTFGQGTKLEIK
3 | – | – | – | 2.44 µg/mL | – | – | – | 2.81 µg/mL | – | – | – | chimeric 6C5 (antibody, V domains shown) VH: QVQLQQSGPELVKPGASVKMSCKASGYTFTDYVISWVKQKTGQGLEWIGEIYPGSGNTYYNEKFKGKATLTADKSSSTAYIHLSSLTSEDSAVYFCAGGGSSHFDYWGQGTTLTVSS VL: not shown
4 | – | – | – | 2.72 µg/mL | – | – | – | – | – | – | – | chimeric 14H9 (antibody, V domains shown) VH: QVQLKESGPGLVAPSQSLSITCTISGFSLTTYGIHWVRQPPGKGLEWLVVIWSDGSTIYNSALKSRLSISKDNSKSQVFLKMNSLQTDDTAIYYCARHGGYYNYFDYWGQGTTLTVSS VL: DIQMNQSPSSLSASLGDTITITCHASQNINVWLSWYQQKPGNIPKLLIYKASNLHTGVPSRFSGSGSGTTFTLTIDSLQPEDIATYYCQQGQSYWTFGGGTKLEIKR
5 | ~3 µg/mL | no binding | – | 0.539 µg/mL | 5.4 nM | 0.000419 s⁻¹ | 77700 M⁻¹ s⁻¹ | – | – | ≤ 0.5 fold (EC50 humanized / EC50 chimeric) | ~0.2 µg/mL | humanized 14H9 (antibody, V domains shown, Only variable domains are tied to the antibody) VH: QVQLVESGGGVVQPGRSLRLSCAISGFTLTTYGIHWVRQAPGKGLEWVAVIWSDASTIYASSLKSRFTISKDNTKNTVYLQMTSLRAEDTAVYYCARHGGYYNYFDYWGQGTLVTVSS VL: DIQMTQSPSSLSASVGDRVTITCHASQNINVWLSWYQQKPGKAPKLLLYKASNLHTGVPSRFSGSGSGTDFTLTISSLQPEDIATYYCQQGQSYWTFGGGTKVEIK
6 | – | – | – | 2.58 µg/mL | – | – | – | 2.33 µg/mL | – | – | – | chimeric 11H11 (antibody, V domains shown) VH: QIHLVQSGPELKKPGETVKISCKASGYTFTNFGMNWVKQAPGKGLKWMGWINTNTGEPTYADDFKGRFAFSLETSASTAYLQINNLKNEDTATYFCARGAPAWFTYWGQGTLVTVSA VL: DIQMTQSPASLSASVGETVTITCRATENIYSYLAWYQQKQGKSPQFLVYNAKTLAEGMPSRFSGSGSGTQFSLKINILQPEDFGTYYCQHHFGTPLTFGAGTKLELKR
